Patent US12173061B2, “Compositions and methods for treatment of chronic lung diseases” (Board of Regents, The University of Texas System, priority 2021, dated 2024)
Entries after “also recorded” stand apart in the source; their conditions may differ.

B1: rM9^ECD: recombinant extracellular domain of human MEGF9 (SEQ ID NO: 102) (protein, listed as Homo sapiens)
chain: MGWSCIILFLVATATGVHSAAVASAASAGNVTGGGGAAGQVDASPGPGLRGEPSHPFPRATAPTAQAPRTGPPRATVHRPLAATSPAQSPETTPLWATAGPSSTTFQAPLGPSPTTPPAAERTSTTSQAPTRPAPTTLSTTTGPAPTTPVATTVPAPTTPRTPTPDLPSSSNSSVLPTPPATEAPSSPPPGHQWPVAKMPQKYLGKYACESNLKSKYLPLTQPVMNLRVSEAVKTEYVCNCSVVGSLNVNRCNQTTGQCECRPGYQGLHCETCKEGFYLNYTSGLCQPCDCSPHGALSIPCNSSGKCQCKVGVIGSICDRCQDGYYGFSKNGCLPCQCNNRSASCDALTGACLNCQENSKGNHCEECKEGFYQSPDATKECLRCPCSAVTSTGSCSIKSSELEPECDQCKDGYIGPNCNKCENGYYNFDSICRKCQCHGHVDPVKTPKICKPESGECINCLHNTTGFWCENCLEGYVHDLEGNCIKKEVILPTPEGSTILVSNASLTTSVPTPVINSTFTPTTLQTIFSVSTSENSTSALADVSWTQFN
B2: M9 protein: recombinant full length human MEGF9 protein (SEQ ID NO: 1) (protein, listed as Homo sapiens)
chain: MNGGAERAMRSLPSLGGLALLCCAAAAAAAAVASAASAGNVTGGGGAAGQVDASPGPGLRGEPSHPFPRATAPTAQAPRTGPPRATVHRPLAATSPAQSPETTPLWATAGPSSTTFQAPLGPSPTTPPAAERTSTTSQAPTRPAPTTLSTTTGPAPTTPVATTVPAPTTPRTPTPDLPSSSNSSVLPTPPATEAPSSPPPEYVCNCSVVGSLNVNRCNQTTGQCECRPGYQGLHCETCKEGFYLNYTSGLCQPCDCSPHGALSIPCNSSGKCQCKVGVIGSICDRCQDGYYGFSKNGCLPCQCNNRSASCDALTGACLNCQENSKGNHCEECKEGFYQSPDATKECLRCPCSAVTSTGSCSIKSSELEPECDQCKDGYIGPNCNKCENGYYNFDSICRKCQCHGHVDPVKTPKICKPESGECINCLHNTTGFWCENCLEGYVHDLEGNCIKKEVILPTPEGSTILVSNASLTTSVPTPVINSTFTPTTLQTIFSVSTSENSTSALADVSWTQFNIIILTVIIIVVVLLMGFVGAVYMYREYQNRKLNAPFWTIELKEDNISFSSYHDSIPNADVSGLLEDDGNEVAPNGQLTLTTPIHNYKA

Key:
[1] = system: fLfs isolated from IPF lungs (hfLfs); assay: Pro-fibrogenic marker expression in fLfs in vitro (immunoblot and mRNA); assay type: cell-based, human; conditions: 2 μg/ml, 48 h, immunoblot
Protocol: FIGS. 3A-3B. Antibodies specific for M9 inhibited pro-fibrogenic markers expression in fLfs in vitro. hfLfs were serum starved and treated with PBS or 2 μg/ml M9 antibody (M9Ab), or 2 μg/ml M9Ab plus 20 μM CSP7 for 48 hours (FIG. 3A). After treatment, cells were harvested and cell lysates were immunoblotted for pro-fibrogenic markers and M9, and 3-actin was used as loading control.
FIG. 4. […]
FIGS. 7A-7M. […] Lung volumes (FIG. 7B) were measured by quantitative-CT renditions, and lung compliance (FIG. 7C) and elastance (FIG. 7D) were measured using a flexiVent system. […] Statistical significance (*P<0.05, **P<0.01, ***P<0.001 and ****P<0.0001) was assessed by one-way ANOVA with Turkey's multiple comparison.
FIGS. 9A-9O. […] FIG. 9B: Lung volumes were measured by quantitative-CT renditions. Lung compliance (FIG. 9C) and elastance (FIG. 9D) were measured using a flexiVent system. […] Statistical significance (*P<0.05, **P<0.01, ***P<0.001 and ****P<0.0001) was assessed by one-way ANOVA with Turkey's multiple comparison. fLfs isolated from IPF lungs treated with PBS or recombinant full length M9 (rM9^FL) protein (2 μg/ml) for 48 h in vitro were tested for pro-fibrogenic proteins (FIG. 9L). fLfs (from IPF lungs) treated with PBS or extracellular domain of rM9^FL protein (rM9^ECD) as in FIG. 9L were tested for pro-fibrogenic proteins (FIG. 9N). […]

[2] = system: BLM-induced pulmonary fibrosis; assay: BLM-induced established pulmonary fibrosis in mice, treatment d14-d21; assay type: in vivo
Protocol: FIGS. 9A-9O. M9 peptide and protein mitigated BLM-induced pulmonary fibrosis. Mice exposed to saline or 1.0 U/kg BLM by intratracheal instillation were treated with or without M9 peptide HGHVDPVKTPKI (SEQ ID NO: 4) (10 mg/kg/d) and M9 protein (SEQ ID NO: 1) 7.5 mg/kg/d) via IP injection daily for 7 days starting d14 after BLM injury. FIG. 9A: Representative micro-CT images at d21 after BLM exposure. FIG. 9B: Lung volumes were measured by quantitative-CT renditions. Lung compliance (FIG. 9C) and elastance (FIG. 9D) were measured using a flexiVent system. Lung weights (FIG. 9E) and body weights (FIG. 9F) are presented as bar graphs. Lung homogenates were tested for hydroxyproline (FIG. 9G), soluble collagen (FIG. 9H), pro-fibrogenic marker proteins (FIG. 9I) and mRNAs (FIG. 9J). Bars indicate mean±SD. Statistical significance (*P<0.05, **P<0.01, ***P<0.001 and ****P<0.0001) was assessed by one-way ANOVA with Turkey's multiple comparison. fLfs isolated from IPF lungs treated with PBS or recombinant full length M9 (rM9^FL) protein (2 μg/ml) for 48 h in vitro were tested for pro-fibrogenic proteins (FIG. 9L). fLfs (from IPF lungs) treated with PBS or extracellular domain of rM9^FL protein (rM9^ECD) as in FIG. 9L were tested for pro-fibrogenic proteins (FIG. 9N). The survival the mice treated with rM9^FL is shown FIG. 9M.
FIGS. 10A-10K. UNC5A (“U5”) peptide/protein mitigated BLM-induced pulmonary fibrosis. Mice exposed to saline or 1.0 U/kg BLM by intratracheal instillation were treated with or without U5 peptide (50 residues, SEQ ID NO: 7) (10 mg/kg/d) and full length U5 protein (SEQ ID NO: 5) (7.5 mg/kg/d) via IP injection daily for 7 days starting d14 after BLM injury. FIG. 10A: Representative micro-CT images at d21 after BLM exposure. FIG. 10B: Lung volumes were measured by quantitative-CT renditions. Lung compliance (FIG. 10C) and elastance (FIG. 10D) were measured using a flexiVent system. Lung weights (FIG. 10E) and body weights (FIG. 10F) are presented as bar graphs. Lung homogenates were tested for hydroxyproline (FIG. 10G), soluble collagen (FIG. 10H), pro-fibrogenic marker proteins (FIG. 10I) and mRNAs (FIG. 10J). Bars indicate mean±SD. Statistical significance (*P<0.05, **P<0.01, ***P<0.001 and ****P<0.0001) was assessed by one-way ANOVA with Turkey's multiple comparison.
FIGS. 11A-11K. ALG5 (“A5”) protein mitigated BLM-induced pulmonary fibrosis. Mice exposed to saline or 1.0 U/kg BLM by intratracheal instillation were treated with or without A5 protein (SEQ ID NO: 9) (7.5 mg/kg/d) via IP injection daily for 7 days starting d14 after BLM injury. FIG. 11A: Representative micro-CT images at d21 after BLM exposure. FIG. 11B: Lung volumes were measured by quantitative-CT renditions. Lung compliance (FIG. 11C) and elastance (FIG. 11D) were measured using a flexiVent system. Lung weights (FIG. 11E) and body weights (FIG. 11F) are presented as bar graphs. Lung homogenates were tested for hydroxyproline (FIG. 11G), soluble collagen (FIG. 11H), pro-fibrogenic marker proteins (FIG. 11I) and mRNAs (FIG. 11J). Bars indicate mean±SD. *P<0.05, **P<0.01, ***P<0.001 and ****P<0.0001 were obtained by one-way ANOVA with Turkey's multiple comparison.
FIGS. 12A-12E. WT mice with BLM-PF were treated with or without rM9^ECD (1.5 mg/kg) via intratracheal (IT) instillation daily for 7 d starting d 14 after BLM. Survival (FIG. 12A), body weights (FIG. 12B), lung volumes (FIG. 12C) and lung weights (FIG. 12D) were measured on d 21 post-BLM. Lung homogenates were tested for soluble collagen (FIG. 12E).
FIGS. 13A-13B. FIG. 13A: fLfs (IPF) treated with PBS or M9^mAb (2 μg/ml) or control IgG, tested for pro-fibrogenic proteins (i) and mRNAs (ii). FIG. 13B: WT mice with BLM-PF were left untreated, or intraperitoneal (IP) injected with control IgG or M9^mAb (2.5 mg/kg) daily for 7 d starting 14 d after IT BLM. Body weights (i) and total lung hydroxyproline (ii), and soluble collagen (iii) were measured. […]

[3] = protein 7.5 mg/kg/d IP, 7 days starting d14 after BLM
[4] = protein 7.5 mg/kg/d IP, 7 days starting d14 after BLM, flexiVent, d21

| Molecule | pro-fibrogenic marker proteins (Col1, FN, TN-C and α-SMA) in fLfs [1] | lung function ([2]; 1.5 mg/kg intratracheal (IT) instillation daily for 7 d starting d 14 after BLM) | existing BLM-induced PF (overall) ([2]; WT mice with BLM-PF, 1.5 mg/kg intratracheal (IT) instillation daily for 7 d starting d 14, d 21, 1.5 mg/kg) | survival rate ([2]; mice with BLM-induced existing PF treated with extracellular domain protein, dose not printed (FIG. 9)) | survival rate ([2]; mice with BLM-induced existing PF, full length protein 7.5 mg/kg/d IP) | BLM-induced pulmonary fibrosis (overall) ([2]; mice, 1.0 U/kg BLM IT, protein 7.5 mg/kg/d IP daily for 7 days starting d14, d21) | BLM-induced fibrogenic marker proteins (Col1, FN, TN-C, α-SMA) in whole lung homogenates [2, 3] | body weight [2, 3] | collagen and other extracellular matrix deposits (Trichrome staining of lung sections) [2, 3] | fibrogenic marker transcripts in whole lung homogenates [2, 3] | lung weight [2, 3] | lung compliance [2, 4] | lung elastance [2, 4] | whole lung total hydroxyproline ([2]; protein 7.5 mg/kg/d IP, 7 days starting d14 after BLM, lung homogenates) | lung volume ([2]; protein 7.5 mg/kg/d IP, 7 days starting d14 after BLM, quantitative CT, d21) |
| --- | --- | --- | --- | --- | --- | --- | --- | --- | --- | --- | --- | --- | --- | --- | --- |
| B1 | reduced | improved | resolved; also recorded: resolution | significantly increased | – | – | – | – | – | – | – | – | – | – | – |
| B2 | reduced | – | – | – | significantly increased | resolved; also recorded: mitigated | marked inhibition | improvement | remarkable reduction | marked inhibition | reduction | improved | improved | significant inhibition | improved |
